How the values were obtained:
C-reactive protein (CRP) [1] = molecular target: T1, C-reactive protein (CRP) (human, UniProt P02741 19-224); experiment: electrochemiluminescence aptasensor; no significant signal change; 0.01 M phosphate buffer (KH2PO4/Na2HPO4) pH 7.4; CRP incubation 80 min; binding temperature not stated; settings: protein: recombinant; chain copies: 5
T1 sequence: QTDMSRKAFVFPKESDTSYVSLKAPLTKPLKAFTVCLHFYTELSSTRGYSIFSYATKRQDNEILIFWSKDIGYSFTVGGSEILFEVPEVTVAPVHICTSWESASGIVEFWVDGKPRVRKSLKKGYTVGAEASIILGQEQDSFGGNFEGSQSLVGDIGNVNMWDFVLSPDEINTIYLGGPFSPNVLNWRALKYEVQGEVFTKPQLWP

alpha-fetoprotein (AFP) = molecular target: T2, alpha-fetoprotein (AFP) (UniProt P02771 19-609); experiment: electrochemiluminescence aptasensor; 100 ng/mL AFP; change very minimal vs 10 ng/mL CRP; 0.01 M phosphate buffer (KH2PO4/Na2HPO4) pH 7.4; CRP incubation 80 min; binding temperature not stated; settings: protein: commercial
T2 sequence: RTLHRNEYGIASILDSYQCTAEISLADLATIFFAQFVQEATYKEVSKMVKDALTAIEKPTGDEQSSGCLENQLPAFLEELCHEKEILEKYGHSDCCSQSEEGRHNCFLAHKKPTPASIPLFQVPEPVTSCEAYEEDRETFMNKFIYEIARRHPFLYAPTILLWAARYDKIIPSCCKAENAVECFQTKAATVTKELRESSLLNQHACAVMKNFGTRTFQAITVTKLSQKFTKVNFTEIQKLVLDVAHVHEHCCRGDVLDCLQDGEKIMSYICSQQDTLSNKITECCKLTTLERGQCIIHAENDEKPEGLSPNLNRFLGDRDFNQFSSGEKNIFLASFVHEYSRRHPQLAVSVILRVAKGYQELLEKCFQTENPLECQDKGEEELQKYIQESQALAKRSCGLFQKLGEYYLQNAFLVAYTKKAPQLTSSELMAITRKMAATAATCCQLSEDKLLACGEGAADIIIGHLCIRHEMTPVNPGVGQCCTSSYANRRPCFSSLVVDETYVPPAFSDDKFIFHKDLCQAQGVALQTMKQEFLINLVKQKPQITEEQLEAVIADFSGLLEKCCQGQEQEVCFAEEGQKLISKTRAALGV

[2] = molecular target: cancer antigen 15-3 (CA15-3) (UniProt P15941 24-1097); experiment: electrochemiluminescence aptasensor; 100 ng/mL CA15-3; change very minimal vs 10 ng/mL CRP; 0.01 M phosphate buffer (KH2PO4/Na2HPO4) pH 7.4; CRP incubation 80 min; binding temperature not stated; settings: protein: commercial
C-reactive protein (CRP) [3] = molecular target: T1, C-reactive protein (CRP); experiment: electrochemiluminescence aptasensor; Ru(bpy)3 2+/TPrA; BSA-blocked; linear 10 pg/mL-1 ug/mL, LOD 7.4 pg/mL; 0.01 M phosphate buffer (KH2PO4/Na2HPO4) pH 7.4; CRP incubation 80 min; binding temperature not stated; settings: protein: recombinant; chain copies: 5

Sequence of cancer antigen 15-3 (CA15-3) (P15941 24-1097): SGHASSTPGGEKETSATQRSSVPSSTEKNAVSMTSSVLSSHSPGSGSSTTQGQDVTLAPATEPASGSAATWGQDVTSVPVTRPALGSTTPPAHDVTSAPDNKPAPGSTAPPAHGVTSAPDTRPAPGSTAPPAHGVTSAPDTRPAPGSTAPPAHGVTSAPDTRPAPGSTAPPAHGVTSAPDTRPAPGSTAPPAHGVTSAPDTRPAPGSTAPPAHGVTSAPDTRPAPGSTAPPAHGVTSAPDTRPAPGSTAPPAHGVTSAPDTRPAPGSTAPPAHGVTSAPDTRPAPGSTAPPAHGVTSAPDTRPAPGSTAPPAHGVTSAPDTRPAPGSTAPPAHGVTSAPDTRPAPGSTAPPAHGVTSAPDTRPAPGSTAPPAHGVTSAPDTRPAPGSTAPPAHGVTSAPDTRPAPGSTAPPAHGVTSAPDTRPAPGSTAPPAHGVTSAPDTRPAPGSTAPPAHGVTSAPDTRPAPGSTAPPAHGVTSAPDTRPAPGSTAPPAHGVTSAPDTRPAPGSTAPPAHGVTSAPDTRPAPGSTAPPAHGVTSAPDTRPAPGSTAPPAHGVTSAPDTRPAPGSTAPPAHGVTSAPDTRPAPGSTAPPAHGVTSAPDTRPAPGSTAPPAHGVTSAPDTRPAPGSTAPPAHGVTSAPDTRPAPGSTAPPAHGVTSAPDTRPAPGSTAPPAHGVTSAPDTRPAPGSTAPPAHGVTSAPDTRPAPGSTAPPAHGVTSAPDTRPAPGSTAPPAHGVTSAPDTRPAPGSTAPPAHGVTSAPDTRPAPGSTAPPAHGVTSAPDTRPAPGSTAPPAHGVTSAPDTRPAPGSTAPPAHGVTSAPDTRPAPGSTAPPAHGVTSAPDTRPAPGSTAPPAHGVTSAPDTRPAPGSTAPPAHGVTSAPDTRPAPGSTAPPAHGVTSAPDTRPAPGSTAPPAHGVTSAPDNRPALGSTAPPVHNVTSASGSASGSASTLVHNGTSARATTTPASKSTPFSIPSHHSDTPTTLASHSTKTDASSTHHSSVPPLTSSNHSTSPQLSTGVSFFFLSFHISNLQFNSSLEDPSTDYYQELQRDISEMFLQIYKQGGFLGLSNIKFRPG

Binder: ATTAAAGCTCGCCATCAAATAGCTGC (ssDNA, 5'-NH2) [PSA aptamer]
- binding result (C-reactive protein (CRP) [1]): no binding

Binder: CGAAGGGGATTCGAGGGGTGATTGCGTGCTCCATTTGGTG (ssDNA, 5'-NH2) [CRP aptamer]
- binding result (alpha-fetoprotein (AFP)): no binding
- binding result [2]: no binding
- binding result (C-reactive protein (CRP) [3]): binds

Binder: ATACCAGCTTATTCAATT (ssDNA, 3'-NH2 (sequence line; text also says 5' amino)) [CEA aptamer]
- binding result (C-reactive protein (CRP) [1]): no binding

Binder: GTTGGGCACGTGTTGTCTCTCTGTGTCTCGTGCCCTTCGCTAGGCCCACA (ssDNA, 3'-NH2 (sequence line; text also says 5' amino)) [AFB1 aptamer]
- binding result (C-reactive protein (CRP) [1]): no binding

Reference: article PMC10675231, “Electrochemiluminescence Aptasensor with Dual Signal Amplification by Silica Nanochannel-Based Confinement Effect on Nanocatalyst and Efficient Emitter Enrichment for Highly Sensitive Detection of C-R”
